Assay results taken from patent CN1660912A.

Columns and labels:
[1] = target: 白细胞介素-8(IL-8), E.Coli表达的基因重组人体单核细胞来源的IL-8, 72个氨基酸 (human) (UniProt P10145); assay: ELISA, plate coated with 1ug/ml IL-8, antibody 30 ng/ml, replicate 2
[2] = target: HSA (UniProt P02768); assay: ELISA, cross-reaction (Table 1)
[3] = target: b-FGF (UniProt P09038); assay: ELISA, cross-reaction (Table 1)
[4] = target: IL-1β (UniProt P01584); assay: ELISA, cross-reaction (Table 1)
[5] = target: TNF-α (UniProt P01375); assay: ELISA, cross-reaction (Table 1)
[6] = target: GM-CSF (UniProt P04141); assay: ELISA, cross-reaction (Table 1)
[7] = target: T1, IL-7 (UniProt P13232); assay: ELISA, cross-reaction (Table 1)
T1 sequence (looked up): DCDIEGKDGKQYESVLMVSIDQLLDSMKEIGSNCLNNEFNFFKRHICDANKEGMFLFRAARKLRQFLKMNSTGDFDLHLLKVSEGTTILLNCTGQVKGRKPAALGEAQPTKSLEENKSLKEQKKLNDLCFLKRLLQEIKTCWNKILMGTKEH

[8] = target: BSA (UniProt P02769); assay: ELISA, cross-reaction (Table 1)
[9] = target: 白细胞介素-8(IL-8), E.Coli表达的基因重组人体单核细胞来源的IL-8, 72个氨基酸 (human) (UniProt P10145); assay: ELISA, cross-reaction (Table 1)
[10] = target: MCP-3 (UniProt P80098); assay: ELISA, cross-reaction (Table 1)
[11] = target: TGF-β; assay: ELISA, cross-reaction (Table 1)
[12] = target: MCAF (UniProt P13500); assay: ELISA, cross-reaction (Table 1)
[13] = target: IL-16 (UniProt Q14005); assay: ELISA, cross-reaction (Table 1)
[14] = target: EGF (UniProt P01133); assay: ELISA, cross-reaction (Table 1)
[15] = target: T2, M-CSF (UniProt P09603); assay: ELISA, cross-reaction (Table 1)
T2 sequence (looked up): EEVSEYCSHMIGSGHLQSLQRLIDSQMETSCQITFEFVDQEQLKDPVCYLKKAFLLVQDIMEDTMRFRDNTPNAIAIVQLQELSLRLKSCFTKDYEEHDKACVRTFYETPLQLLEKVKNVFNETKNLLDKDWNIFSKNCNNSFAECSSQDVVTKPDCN

[16] = target: 白细胞介素-8(IL-8), E.Coli表达的基因重组人体单核细胞来源的IL-8, 72个氨基酸 (human) (UniProt P10145); assay: ELISA, plate coated with 1ug/ml IL-8, antibody 15 ng/ml, replicate 2
[17] = target: 白细胞介素-8(IL-8), E.Coli表达的基因重组人体单核细胞来源的IL-8, 72个氨基酸 (human) (UniProt P10145); assay: ELISA, plate coated with 1ug/ml IL-8, antibody 15 ng/ml, mean
[18] = target: T3, PF-4 (UniProt P02776); assay: ELISA, cross-reaction with IL-8 homologues (Table 2)
T3 sequence (looked up): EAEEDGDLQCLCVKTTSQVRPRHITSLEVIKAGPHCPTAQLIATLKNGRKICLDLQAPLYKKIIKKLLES

[19] = target: GCP2 (UniProt P80162); assay: as above
[20] = target: T4, NAP-2 (UniProt P02775); assay: as above
T4 sequence (looked up): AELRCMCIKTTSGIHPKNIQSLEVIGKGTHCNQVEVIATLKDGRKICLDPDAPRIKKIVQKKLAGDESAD

[21] = target: 白细胞介素-8(IL-8), E.Coli表达的基因重组人体单核细胞来源的IL-8, 72个氨基酸 (human) (UniProt P10145); assay: as above
[22] = target: T5, ENA78 (UniProt P42830); assay: as above
T5 sequence (looked up): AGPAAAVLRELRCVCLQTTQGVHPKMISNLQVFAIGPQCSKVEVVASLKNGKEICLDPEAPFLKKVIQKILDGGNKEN

[23] = target: GROα (UniProt P09341); assay: as above
[24] = target: 白细胞介素-8(IL-8), E.Coli表达的基因重组人体单核细胞来源的IL-8, 72个氨基酸 (human) (UniProt P10145); assay: ELISA, plate coated with 1ug/ml IL-8, antibody 30 ng/ml, replicate 1
[25] = target: 白细胞介素-8(IL-8), E.Coli表达的基因重组人体单核细胞来源的IL-8, 72个氨基酸 (human) (UniProt P10145); assay: ELISA, plate coated with 1ug/ml IL-8, antibody 3 ng/ml, mean
[26] = target: 白细胞介素-8(IL-8), E.Coli表达的基因重组人体单核细胞来源的IL-8, 72个氨基酸 (human) (UniProt P10145); assay: ELISA, plate coated with 1ug/ml IL-8, antibody 15 ng/ml, replicate 1
[27] = target: 白细胞介素-8(IL-8), E.Coli表达的基因重组人体单核细胞来源的IL-8, 72个氨基酸 (human) (UniProt P10145); assay: ELISA, plate coated with 1ug/ml IL-8, antibody 30 ng/ml, mean
[28] = target: 白细胞介素-8(IL-8), E.Coli表达的基因重组人体单核细胞来源的IL-8, 72个氨基酸 (human) (UniProt P10145); assay: cell-based or functional assay
[29] = target: 白细胞介素-8(IL-8), E.Coli表达的基因重组人体单核细胞来源的IL-8, 72个氨基酸 (human) (UniProt P10145); assay: ELISA, plate coated with 1ug/ml IL-8, antibody 3 ng/ml, replicate 2
[30] = target: 白细胞介素-8(IL-8), E.Coli表达的基因重组人体单核细胞来源的IL-8, 72个氨基酸 (human) (UniProt P10145); assay: ELISA, plate coated with 1ug/ml IL-8, antibody 3 ng/ml, replicate 1

UniProt P10145, sequence (P10145 21-99): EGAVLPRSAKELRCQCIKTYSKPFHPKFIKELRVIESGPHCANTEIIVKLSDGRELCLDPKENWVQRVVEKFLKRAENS
UniProt P09038, sequence (P09038 143-288 limits assumed): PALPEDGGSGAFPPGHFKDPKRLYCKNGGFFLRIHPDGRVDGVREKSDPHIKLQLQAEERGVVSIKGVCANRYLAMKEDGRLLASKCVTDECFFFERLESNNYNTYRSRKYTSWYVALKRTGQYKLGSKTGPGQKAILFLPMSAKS
UniProt P80098, sequence (P80098 24-99 limits assumed): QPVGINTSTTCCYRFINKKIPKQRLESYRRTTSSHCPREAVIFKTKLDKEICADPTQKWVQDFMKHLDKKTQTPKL
UniProt P01133, sequence (P01133 971-1023 limits assumed): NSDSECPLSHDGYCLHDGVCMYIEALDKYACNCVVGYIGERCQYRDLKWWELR
UniProt P02768, sequence (P02768 25-609): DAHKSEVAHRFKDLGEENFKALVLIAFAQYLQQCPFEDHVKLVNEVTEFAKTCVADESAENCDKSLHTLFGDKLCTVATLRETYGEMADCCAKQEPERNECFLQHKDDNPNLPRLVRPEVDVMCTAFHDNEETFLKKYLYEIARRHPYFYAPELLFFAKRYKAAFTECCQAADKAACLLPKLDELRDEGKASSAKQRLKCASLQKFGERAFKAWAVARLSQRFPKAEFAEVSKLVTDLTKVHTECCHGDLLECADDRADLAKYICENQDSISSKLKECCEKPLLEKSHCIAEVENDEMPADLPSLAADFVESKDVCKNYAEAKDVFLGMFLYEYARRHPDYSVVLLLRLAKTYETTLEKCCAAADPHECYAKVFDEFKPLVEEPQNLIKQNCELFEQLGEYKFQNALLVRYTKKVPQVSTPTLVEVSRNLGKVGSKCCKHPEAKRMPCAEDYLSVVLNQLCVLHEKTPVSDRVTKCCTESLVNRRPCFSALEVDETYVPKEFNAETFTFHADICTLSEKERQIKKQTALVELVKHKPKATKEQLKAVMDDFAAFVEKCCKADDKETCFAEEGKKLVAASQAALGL
UniProt P80162, sequence (P80162 38-114 limits assumed): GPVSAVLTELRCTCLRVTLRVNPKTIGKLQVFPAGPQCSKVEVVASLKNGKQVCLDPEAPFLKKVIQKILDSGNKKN
UniProt P13500, sequence (P13500 24-99 limits assumed): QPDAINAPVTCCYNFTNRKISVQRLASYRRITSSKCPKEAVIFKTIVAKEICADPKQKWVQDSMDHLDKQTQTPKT
UniProt P02769, sequence (P02769 25-607 limits assumed): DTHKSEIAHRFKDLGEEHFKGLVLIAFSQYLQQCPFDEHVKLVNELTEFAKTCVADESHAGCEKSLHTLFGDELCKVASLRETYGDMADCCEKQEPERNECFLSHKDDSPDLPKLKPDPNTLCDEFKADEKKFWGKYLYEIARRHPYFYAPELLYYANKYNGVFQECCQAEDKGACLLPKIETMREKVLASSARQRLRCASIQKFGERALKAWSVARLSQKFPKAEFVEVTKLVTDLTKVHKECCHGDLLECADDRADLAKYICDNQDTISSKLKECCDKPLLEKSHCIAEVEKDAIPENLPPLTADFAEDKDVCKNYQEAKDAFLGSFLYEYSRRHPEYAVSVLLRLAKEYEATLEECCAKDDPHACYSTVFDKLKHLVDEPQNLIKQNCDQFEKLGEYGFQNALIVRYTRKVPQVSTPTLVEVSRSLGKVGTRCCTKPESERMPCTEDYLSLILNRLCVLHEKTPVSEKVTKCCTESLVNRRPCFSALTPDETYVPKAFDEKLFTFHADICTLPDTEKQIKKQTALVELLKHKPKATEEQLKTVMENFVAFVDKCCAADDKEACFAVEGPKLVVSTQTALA
UniProt P09341, sequence (P09341 35-107 limits assumed): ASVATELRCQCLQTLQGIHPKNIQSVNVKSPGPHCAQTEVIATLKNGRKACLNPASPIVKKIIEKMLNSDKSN
UniProt P01584, sequence (P01584 117-269 limits assumed): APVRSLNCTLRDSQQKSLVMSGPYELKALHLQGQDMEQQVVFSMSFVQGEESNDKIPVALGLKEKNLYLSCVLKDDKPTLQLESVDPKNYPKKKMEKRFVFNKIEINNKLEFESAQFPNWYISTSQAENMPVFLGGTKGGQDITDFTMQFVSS
UniProt P04141, sequence (P04141 18-144 limits assumed): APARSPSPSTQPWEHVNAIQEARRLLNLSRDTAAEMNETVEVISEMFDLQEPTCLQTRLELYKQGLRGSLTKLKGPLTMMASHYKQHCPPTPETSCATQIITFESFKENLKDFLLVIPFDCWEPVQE
UniProt Q14005, sequence (Q14005 1212-1332 limits assumed): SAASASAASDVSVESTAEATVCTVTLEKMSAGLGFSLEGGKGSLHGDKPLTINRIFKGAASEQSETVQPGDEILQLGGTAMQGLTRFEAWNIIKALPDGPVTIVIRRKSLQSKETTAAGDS
UniProt P01375, sequence (P01375 77-233 limits assumed): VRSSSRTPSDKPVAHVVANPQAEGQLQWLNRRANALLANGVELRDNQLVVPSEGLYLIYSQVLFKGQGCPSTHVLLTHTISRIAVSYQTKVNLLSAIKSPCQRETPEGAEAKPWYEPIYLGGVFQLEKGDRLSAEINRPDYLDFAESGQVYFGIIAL

B1: 抗IL-8单克隆抗体 克隆6E6(又称I8-60) (antibody, part only; not given: light variable and mouse constant regions, IgG1, V domains shown, part only)
VH: QVKLQQSGGGLVQPGGSLKFSCAASGFDFSRYWMSWVRQAPGKGLEWIGEINPDSTTINYTPSLKDKFIISRDNAKNTLYLQMSKVRSEDTALYYCARLDGYYGYFDYWGQGTTVTVSS
OD 450 [1]: 1.27 OD450 | O.D.值 [2]: 0.129 OD | O.D.值 [3]: 0.027 OD | O.D.值 [4]: 0.029 OD | O.D.值 [5]: 0.039 OD | O.D.值 [6]: 0.037 OD | O.D.值 [7]: 0.06 OD | O.D.值 [8]: 0.147 OD | O.D.值 [9]: > 2 OD | O.D.值 [10]: 0.024 OD | O.D.值 [11]: 0.021 OD | O.D.值 [12]: 0.023 OD | O.D.值 [13]: 0.044 OD | O.D.值 [14]: 0.044 OD | O.D.值 [15]: 0.044 OD | OD 450 [16]: 0.708 OD450 | OD 450 平均值 [17]: 0.667 OD450 | O.D.值 [18]: 0.113 OD | O.D.值 [19]: 0.088 OD | O.D.值 [20]: 0.031 OD | O.D.值 [21]: > 2 OD | O.D.值 [22]: 0.073 OD | O.D.值 [23]: 0.097 OD | OD 450 [24]: 1.09 OD450 | OD 450 平均值 [25]: 0.365 OD450 | OD 450 [26]: 0.626 OD450 | OD 450 平均值 [27]: 1.18 OD450 | 化学趋向抑制率 (antibody 0.05μg/mL, IL-8 10ng/ml, Ab∶Ag 5∶1) [28]: 17.1% | 化学趋向抑制率 (antibody 0.5μg/mL, IL-8 10ng/ml, Ab∶Ag 50∶1) [28]: 83.9% | 化学趋向抑制率 (antibody 5μg/mL, IL-8 10ng/ml, Ab∶Ag 500∶1) [28]: 99.8% | 化学趋向抑制率 (antibody 50μg/mL, IL-8 10ng/ml, Ab∶Ag 5000∶1) [28]: 118% | 抑制率(%) (IL-8 20 ng/ml, antibody 0.1 ug/ml) [28]: 48.9% | 抑制率(%) (IL-8 20 ng/ml, antibody 1 ug/ml) [28]: 81.1% | 抑制率(%) (IL-8 20 ng/ml, antibody 10 ug/ml) [28]: 91.1% | 趋化指数 (IL-8 20 ng/ml, antibody 0.1 ug/ml) [28]: 2.24 | 趋化指数 (IL-8 20 ng/ml, antibody 1 ug/ml) [28]: 1.46 | 趋化指数 (IL-8 20 ng/ml, antibody 10 ug/ml) [28]: 1.22 | OD 450 [29]: 0.377 OD450 | OD 450 [30]: 0.352 OD450

B2: 抗IL-8嵌合型抗体 (Chimeric anti-IL8 Ab) (antibody, part only; not given: light variable and human constant regions, not shown: a dimerising Fc or GST)
heavy: QVKLQQSGGGLVQPGGSLKFSCAASGFDFSRYWMSWVRQAPGKGLEWIGEINPDSTTINYTPSLKDKFIISRDNAKNTLYLQMSKVRSEDTALYYCARLDGYYGYFDYWGQGTTVTVSS
OD 450 [1]: 2 OD450 | OD 450 [16]: 1.14 OD450 | OD 450 平均值 [17]: 1.12 OD450 | OD 450 [24]: 1.9 OD450 | OD 450 平均值 [25]: 0.402 OD450 | OD 450 [26]: 1.09 OD450 | OD 450 平均值 [27]: 1.95 OD450 | 抑制率(%) (IL-8 20 ng/ml, antibody 0.1 ug/ml) [28]: 48.2% | 抑制率(%) (IL-8 20 ng/ml, antibody 1 ug/ml) [28]: 80.2% | 抑制率(%) (IL-8 20 ng/ml, antibody 10 ug/ml) [28]: 75.1% | 趋化指数 (IL-8 20 ng/ml, antibody 0.1 ug/ml) [28]: 2.25 | 趋化指数 (IL-8 20 ng/ml, antibody 1 ug/ml) [28]: 1.48 | 趋化指数 (IL-8 20 ng/ml, antibody 10 ug/ml) [28]: 1.6 | OD 450 [29]: 0.398 OD450 | OD 450 [30]: 0.406 OD450
